Two molecules from patent US20190292245A1 (published 2019) can be followed below.

Assay [1] deals with T1, tauΔ2-18 (UniProt P10636-8 1-441).
T1 construct: Deletion of residues 2-18; also called tau that lacks 2-18 domain; recombinant tauΔ2-18
Briefly: blot.

Assay [2] concerns the target T1, tauΔ2-18. Briefly: Western blot.

T1 sequence (P10636 other isoform, or with tags, fused parts or gaps mutant limits assumed): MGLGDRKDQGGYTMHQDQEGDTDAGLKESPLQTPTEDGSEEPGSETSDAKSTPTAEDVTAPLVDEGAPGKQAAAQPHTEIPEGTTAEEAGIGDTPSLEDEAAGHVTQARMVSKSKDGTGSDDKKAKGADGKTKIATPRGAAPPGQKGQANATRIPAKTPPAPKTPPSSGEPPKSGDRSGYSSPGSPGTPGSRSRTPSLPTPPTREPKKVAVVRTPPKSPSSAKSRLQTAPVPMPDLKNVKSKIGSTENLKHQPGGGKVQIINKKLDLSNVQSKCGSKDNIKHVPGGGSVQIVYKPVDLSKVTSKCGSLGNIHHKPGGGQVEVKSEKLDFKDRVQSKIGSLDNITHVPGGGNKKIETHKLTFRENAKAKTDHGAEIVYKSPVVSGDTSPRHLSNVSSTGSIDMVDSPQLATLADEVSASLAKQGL

B1: Armanezumab (antibody, V domains shown)
VH: QVQLVQSGAEVKKPGASVKVSCKASGYTFTNHWMHWVRQAPGQGLEWMGAIDPGNSDTSYNQKFKGRVTMTRDTSTSTVYMELSSLRSEDTAVYYCARRDFFGGEYAVDYWGQGTLVTVSS
VL: DIVMTQSPLSLPVTPGEPASISCRSSQSLVHSNGNTYLHWYLQKPGQSPQLLIYKVSNRFSGVPDRFSGSGSGTDFTLKISRVEAEDVGVYYCSQSTHVPWTFGQGTKVEIKR
notes: Fully humanized IgG derived from 1C9; also called humanized 1C9
Consider B1, for which the binding result in assay [1] is listed as “no binding”.

B2: mouse monoclonal antibody 1C9 (antibody, V domains shown)
VH: EVQLQQSGTVLARPGASVKMSCKTSGYTFTNHWMHWVKQRPGQGLEWIGAIDPGNSDTSYNQKFKGQAKLTAVTSASTAFMELSSLTNEDSAVYYCTRRDFFGGEYAVDYWGQGTSVTVSS
VL: DVVMTQTPLSLPVSLGDQASISCRSSQSLVHSNGNTYLHWYLQKPGQSPKLLIYKVSNRFSGVPDRFSGSGSGTDFTLKISRVEAEDLGVYFCSQSTHVPWTFGGGTKLEIK
notes: also called 1C9 mAb; 1C9 moAb
In the case of B2, the binding result in assay [2] is recorded as “no binding”.
